In patent publication US20200368364A1, “CYSTEINE PEPTIDE-ENABLED ANTIBODIES” (City of Hope, priority 2016, published 2020):

How the values were obtained:
[1] = target: mutated I83 trastuzumab memAb (I83E); test: SPR at 37° C., meditope over immobilised I83E trastuzumab memAb
[2] = target: Her2 (antigen in the SPR of Example 1, FIG. 14) (UniProt P04626); test: SPR
[3] = target: HER2-Fc (R&D Systems) (UniProt P04626); test: SPR (Biacore T200), HER2-Fc amine-coupled to a CM5 chip, Fab flowed over; ± is the SD of three runs
[4] = target: HER2 on SKBR3 cells (UniProt P04626); test: Flow cytometry on SKBR3 cells with 10 nM complex on ice and an AF488 secondary antibody. The other quadrants are printed as Q1 1.19, Q3 0 and Q4 0.18.
[5] = target: original trastuzumab memAb (meditope-enabled trastuzumab, I83 in the light chain); test: SPR at 37° C., meditope over immobilised original trastuzumab memAb

| Substance | Kd [1] [nM] | Kd [3] [nM] | koff [3] [s⁻¹] | kon [3] [M⁻¹ s⁻¹] | other results |
| --- | --- | --- | --- | --- | --- |
| 5-diphenylalanine meditope (FIG. 3) (peptide) | 0.86 |  |  |  |  |
| Trastuzumab I83E Fab (meditope-enabled trastuzumab V2 Fab) |  | 0.863 | 0.000674 | 1.04e+06 | Kd [2]: 0.055 nM; koff [2]: 0.00021 s⁻¹; kon [2]: 3.8e+06 M⁻¹ s⁻¹ |
| A175C meFab conjugated to the AlexaFluor647 thiopyridine-meditope |  |  |  |  | Q2 (share of events positive for both the AF647 meditope and the AF488 secondary antibody) [4]: 98.6 |
| Trastuzumab I83E, A175C Fab |  | 0.296 | 0.000378 | 1.28e+06 |  |
| original meditope, Ac-…-Am (peptide) | 38 |  |  |  | Kd [5]: 1000 nM |
